# Laboratory results as given in paper PMC5520056, “Cryo-EM structures of the ATP-bound Vps4^E233Q hexamer and its complex with Vta1 at near-atomic resolution” (Nature Communications, 2017).
# B1: Vps4^E233Q (full-length yeast Vps4 containing an mutation) [Saccharomyces cerevisiae] / itself (parent)
# chain: MSTGDFLTKGIELVQKAIDLDTATQYEEAYTAYYNGLDYLMLALKYEKNPKSKDLIRAKFTEYLNRAEQLKKHLESEEANAAKKSPSAGSGSNGGNKKISQEEGEDNGGEDNKKLRGALSSAILSEKPNVKWEDVAGLEGAKEALKEAVILPVKFPHLFKGNRKPTSGILLYGPPGTGKSYLAKAVATEANSTFFSVSSSDLVSKWMGESEKLVKQLFAMARENKPSIIFIDQVDALTGTRGEGESEASRRIKTELLVQMNGVGNDSQGVLVLGATNIPWQLDSAIRRRFERRIYIPLPDLAARTTMFEINVGDTPCVLTKEDYRTLGAMTEGYSGSDIAVVVKDALMQPIRKIQSATHFKDVSTEDDETRKLTPCSPGDDGAIEMSWTDIEADELKEPDLTIKDFLKAIKSTRPTVNEDDLLKQEQFTRDFGQEGN
# Variants of: B1
# Assay: SEC
# Conditions: with itself; in the presence of ATP; height of the peak at the hexamer elution position (~12 ml); read off a plot
row,response,Variant
1,88 mAU,MSTGDFLTKGIELVQKAIDLDTATQYEEAYTAYYNGLDYLMLALKYEKNPKSKDLIRAKFTEYLNRAEQLKKHLESEEANAAKKSPSAGSGSNGGNKKISQEEGEDNGGEDNKKLRGALSSAILSEKPNVKWEDVAGLEGAKEALKEAVILPVKFPHLFKGNRKPTSGILLYGPPGTGKSYLAKAVATEANSTFFSVSSSDLVSKWMGESEKLVAQLFAMARENKPSIIFIDQVDALTGTRGEGESEASRRIKTELLVQMNGVGNDSQGVLVLGATNIPWQLDSAIRRRFERRIYIPLPDLAARTTMFEINVGDTPCVLTKEDYRTLGAMTEGYSGSDIAVVVKDALMQPIRKIQSATHFKDVSTEDDETRKLTPCSPGDDGAIEMSWTDIEADELKEPDLTIKDFLKAIKSTRPTVNEDDLLKQEQFTRDFGQEGN [chain 1 K215A]
2,65 mAU,MSTGDFLTKGIELVQKAIDLDTATQYEEAYTAYYNGLDYLMLALKYEKNPKSKDLIRAKFTEYLNRAEQLKKHLESEEANAAKKSPSAGSGSNGGNKKISQEEGEDNGGEDNKKLRGALSSAILSEKPNVKWEDVAGLEGAKEALKEAVILPVKFPHLFKGNRKPTSGILLYGPPGTGKSYLAKAVATEANSTFFSVSSSDLVSKWMGESEKLVKQLFAMARENKPSIIFIDQVDALTGTRGEGESEASRRIKTELLVQMNGVGNDSQGVLVLGATNIPWQLDSAIRRRFERRIYIPLPDLAARTTMFEINVGDTPCVLTKEDYRTLGAMTEGYSGSDIAVVVKDALMQPIRKIQSATHFKDVSTEDDETRKLTPCSPGDDGAIEMSWTDIEADEAKEPDLTIKDFLKAIKSTRPTVNEDDLLKQEQFTRDFGQEGN [chain 1 L396A]

# Same assay, conditions: with itself; height of the peak at the hexamer elution position (~12 ml); read off a plot
row,response,Variant
1,13 mAU,MSTGDFLTKGIELVQKAIDLDTATQYEEAYTAYYNGLDYLMLALKYEKNPKSKDLIRAKFTEYLNRAEQLKKHLESEEANAAKKSPSAGSGSNGGNKKISQEEGEDNGGEDNKKLRGALSSAILSEKPNVKWEDVAGLEGAKEALKEAVILPVKFPHLFKGNRKPTSGILLYGPPGTGKSYLAKAVATEANSTFFSVSSSDLVSKWMGESEKLVKQLFAMARENKPSIIFIDQVDALTGTRGEGESEASRRIKTELLVQMNGVGNDSQGVLVLGATNIPWQLDSAIRRAFERRIYIPLPDLAARTTMFEINVGDTPCVLTKEDYRTLGAMTEGYSGSDIAVVVKDALMQPIRKIQSATHFKDVSTEDDETRKLTPCSPGDDGAIEMSWTDIEADELKEPDLTIKDFLKAIKSTRPTVNEDDLLKQEQFTRDFGQEGN [chain 1 R289A]

# Same assay, conditions: with itself; in the presence of ATP; height of the broad peak at the hexamer elution position (~11.5-12 ml); read off a plot
row,response,Variant
1,72 mAU,MSTGDFLTKGIELVQKAIDLDTATQYEEAYTAYYNGLDYLMLALKYEKNPKSKDLIRAKFTEYLNRAEQLKKHLESEEANAAKKSPSAGSGSNGGNKKISQEEGEDNGGEDNKKLRGALSSAILSEKPNVKWEDVAGLEGAKEALKEAVILPVKFPHLFKGNRKPTSGILLYGPPGTGKSYLAKAVATEANSTFFSVSSSDLVSKWMGESEKLVKQLFAMARENKPSIIFIDQVDALTGTRGEGESAASRRIKTELLVQMNGVGNDSQGVLVLGATNIPWQLDSAIRRRFERRIYIPLPDLAARTTMFEINVGDTPCVLTKEDYRTLGAMTEGYSGSDIAVVVKDALMQPIRKIQSATHFKDVSTEDDETRKLTPCSPGDDGAIEMSWTDIEADELKEPDLTIKDFLKAIKSTRPTVNEDDLLKQEQFTRDFGQEGN [chain 1 E247A]

# Same assay, conditions: with itself; in the presence of ATP; height of the broad peak at the hexamer elution position (~12 ml); read off a plot
row,response,Variant
1,44 mAU,MSTGDFLTKGIELVQKAIDLDTATQYEEAYTAYYNGLDYLMLALKYEKNPKSKDLIRAKFTEYLNRAEQLKKHLESEEANAAKKSPSAGSGSNGGNKKISQEEGEDNGGEDNKKLRGALSSAILSEKPNVKWEDVAGLEGAKEALKEAVILPVAAPHLFKGNRKPTSGILLYGPPGTGKSYLAKAVATEANSTFFSVSSSDLVSKWMGESEKLVKQLFAMARENKPSIIFIDQVDALTGTRGEGESEASRRIKTELLVQMNGVGNDSQGVLVLGATNIPWQLDSAIRRRFERRIYIPLPDLAARTTMFEINVGDTPCVLTKEDYRTLGAMTEGYSGSDIAVVVKDALMQPIRKIQSATHFKDVSTEDDETRKLTPCSPGDDGAIEMSWTDIEADELKEPDLTIKDFLKAIKSTRPTVNEDDLLKQEQFTRDFGQEGN [chain 1 K154A F155A]

# Same assay, conditions: with itself; in the presence of ATP; height of the peak at the hexamer elution position (~12.5 ml); read off a plot
row,response,Variant
1,42 mAU,MSTGDFLTKGIELVQKAIDLDTATQYEEAYTAYYNGLDYLMLALKYEKNPKSKDLIRAKFTEYLNRAEQLKKHLESEEANAAKKSPSAGSGSNGGNKKISQEEGEDNGGEDNKKLRGALSSAILSEKPNVKWEDVAGLEGAKEALKEAVILPVKFPHLFKGNRKPTSGILLYGPPGTGKSYLAKAVATEANSTFFSVSSSDLVSKWMGESEKLVKQLFAMARENKPSIIFIDQVDALTGTRGEGESEASRRIKTELLVQMNGVGNDSQGVLVLGATNIPWQLDSAIRRRFERRIYIPLPDLAARTTMFEINVGDTPCVLTKEDYRTLGAMTEGYSGSDIAVVVKDALMQPIRKIQSATHFKDVSTEDDETRKLTPCSPGDDGAIEMSWTDIEADELKEPDLTIKDFLKAIKSTRPTVNEDDLLKQEQFTRAFGQEGN [chain 1 D431A]
